{"source": "paper PMC7865148", "about": "(Proceedings of the National Academy of Sciences of the …, 2021)"}
{"biological_target": "T1, NST1-GST fusion protein (Arabidopsis thaliana, UniProt Q84WP6 1-365)", "T1 sequence (looked up)": "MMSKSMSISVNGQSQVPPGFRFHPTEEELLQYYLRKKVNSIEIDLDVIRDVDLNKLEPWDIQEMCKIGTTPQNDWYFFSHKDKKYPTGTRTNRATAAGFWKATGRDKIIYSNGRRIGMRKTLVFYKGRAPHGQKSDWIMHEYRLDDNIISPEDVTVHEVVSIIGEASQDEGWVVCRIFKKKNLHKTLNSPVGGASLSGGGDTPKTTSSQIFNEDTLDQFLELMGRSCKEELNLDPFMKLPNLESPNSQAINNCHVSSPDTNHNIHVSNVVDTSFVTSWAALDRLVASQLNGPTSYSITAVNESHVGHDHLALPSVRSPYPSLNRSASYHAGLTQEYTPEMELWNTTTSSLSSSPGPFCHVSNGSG", "assay": "pull-down"}
{"binder": "SnRK2.3-6xHis fusion protein (enzyme, Arabidopsis thaliana, UniProt Q39193 1-361, looked up) MDRAPVTTGPLDMPIMHDSDRYDFVKDIGSGNFGVARLMRDKLTKELVAVKYIERGDKIDENVQREIINHRSLRHPNIVRFKEVILTPTHLAIIMEYASGGELYERICNAGRFSEDEARFFFQQLLSGVSYCHSMQICHRDLKLENTLLDGSPAPRLKICDFGYSKSSVLHSQPKSTVGTPAYIAPEVLLRQEYDGKIADVWSCGVTLYVMLVGAYPFEDPEEPRDYRKTIQRILSVKYSIPDDIRISPECCHLISRIFVADPATRISIPEIKTHSWFLKNLPADLMNESNTGSQFQEPEQPMQSLDTIMQIISEATIPAVRNRCLDDFMTDNLDLDDDMDDFDSESEIDIDSSGEIVYAL", "binding result": "binds"}
{"binder": "SnRK2.2-6xHis fusion protein (enzyme, Arabidopsis thaliana, UniProt Q39192 1-362, looked up) MDPATNSPIMPIDLPIMHDSDRYDFVKDIGSGNFGVARLMTDRVTKELVAVKYIERGEKIDENVQREIINHRSLRHPNIVRFKEVILTPSHLAIVMEYAAGGELYERICNAGRFSEDEARFFFQQLISGVSYCHAMQICHRDLKLENTLLDGSPAPRLKICDFGYSKSSVLHSQPKSTVGTPAYIAPEILLRQEYDGKLADVWSCGVTLYVMLVGAYPFEDPQEPRDYRKTIQRILSVTYSIPEDLHLSPECRHLISRIFVADPATRITIPEITSDKWFLKNLPGDLMDENRMGSQFQEPEQPMQSLDTIMQIISEATIPTVRNRCLDDFMADNLDLDDDMDDFDSESEIDVDSSGEIVYAL", "binding result": "binds"}
{"binder": "SnRK2.6-6xHis fusion protein (enzyme, Arabidopsis thaliana, UniProt Q940H6 1-362, looked up) MDRPAVSGPMDLPIMHDSDRYELVKDIGSGNFGVARLMRDKQSNELVAVKYIERGEKIDENVKREIINHRSLRHPNIVRFKEVILTPTHLAIVMEYASGGELFERICNAGRFSEDEARFFFQQLISGVSYCHAMQVCHRDLKLENTLLDGSPAPRLKICDFGYSKSSVLHSQPKSTVGTPAYIAPEVLLKKEYDGKVADVWSCGVTLYVMLVGAYPFEDPEEPKNFRKTIHRILNVQYAIPDYVHISPECRHLISRIFVADPAKRISIPEIRNHEWFLKNLPADLMNDNTMTTQFDESDQPGQSIEEIMQIIAEATVPPAGTQNLNHYLTGSLDIDDDMEEDLESDLDDLDIDSSGEIVYAM", "binding result": "binds"}
